The target of experiment [1] is human HER4 expressed on HEK293 cells (human) (UniProt Q15303). The experiment can be described thus: flow cytometry on HEK293 HER4 overexpressing cells, 10 µg/ml antibody.
The target of experiment [2] is human HER3 expressed on cells (human) (UniProt P21860). The experiment can be described thus: flow cytometry on HEK293T HER3 O/E cells, '10 ug' antibody as printed (10 µg/ml by paragraph 872), FITC anti-Fc secondary. (In general: Flow cytometry measures light scatter and fluorescence of single cells or particles in a stream.)
Experiment [3] has the same target. As to the kind of experiment: flow cytometry, HEK293 cells overexpressing human HER3, 20 ug/ml antibody, FITC anti-Fc secondary; isotype on WT HEK293: 0.07.
Experiment [4] deals with FcgRIIIA (F158) (human) (UniProt P08637). As to the kind of experiment: Bio-Layer Interferometry, determined as described in Example 7. On the technique in general: BLI is a label-free optical method that tracks binding on a fibre tip over time.
The target of experiment [5] is T1, moFcRn (mouse) (UniProt Q61559).
T1 sequence (receptor, looked up): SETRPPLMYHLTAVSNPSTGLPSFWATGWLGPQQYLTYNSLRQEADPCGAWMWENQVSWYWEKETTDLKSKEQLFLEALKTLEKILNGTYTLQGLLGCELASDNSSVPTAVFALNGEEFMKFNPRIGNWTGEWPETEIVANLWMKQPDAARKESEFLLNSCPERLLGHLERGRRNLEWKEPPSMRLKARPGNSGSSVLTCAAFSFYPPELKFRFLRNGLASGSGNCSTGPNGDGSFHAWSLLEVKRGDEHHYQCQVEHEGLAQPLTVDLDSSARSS
T1 sequence (looked up): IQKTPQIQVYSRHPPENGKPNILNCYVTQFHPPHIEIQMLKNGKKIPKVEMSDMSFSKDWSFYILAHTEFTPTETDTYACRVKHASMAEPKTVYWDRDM
The description is as above.

Experiment [6] has as its target moFcgRIV (mouse). Described as above.
Experiment [7] addresses FcRn (human) (UniProt P55899). The description is as above.
The target of experiment [8] is human HER3 expressed on cells (human) (UniProt P21860). As to the kind of experiment: flow cytometry, HEK293 cells overexpressing human HER3, 20 ug/ml antibody, FITC anti-Fc secondary; same antibody on WT HEK293: 8.15.
Experiment [9] has as its target His-tagged FcγRIIIa (V158) (UniProt P08637). As to the kind of experiment: Bio-Layer Interferometry, determined as described in Example 7; receptor row FcgRIIIA (V158).
The target of experiment [10] is human HER3 expressed on cells (human) (UniProt P21860). As to the kind of experiment: flow cytometry, HEK293 cells overexpressing human HER3, 20 ug/ml antibody, FITC anti-Fc secondary; same antibody on WT HEK293: 1.91.
Experiment [11] deals with T2, human EGFR polypeptide, recombinant (human, UniProt P00533 25-645).
T2 construct: also called human HER1 (EGFR); human EGFR-His
As to the kind of experiment: ELISA, plate coated with 0.1 ug/ml target polypeptide, antibody serially diluted. How it is done:
(§1) ELISAs were used to determine the binding specificity of the antibodies. […] The antibodies were also analysed for their ability to bind to human EGFR and human HER2 (Sino Biological Inc., China).
(§2) ELISAs were carried out according to standard protocols. Briefly, 96-well plates (Nunc, Denmark) were coated with 0.1 μg/ml of target polypeptide in phosphate-buffered saline (PBS) for 16 h at 4° C. After blocking for 1 h with 1% BSA in Tris buffer saline (TBS) at room temperature, the anti-HER3 antibody was serially diluted with the highest concentration being 10 μg/ml, and added to the plate. Post 1 h incubation at room temperature, plates were washed three times with TBS containing 0.05% Tween 20 (TBS-T) and were then incubated with a HRP-conjugated […] antibody (Life Technologies, Inc., USA) for 1 h at room temperature. After washing, plates were developed with colorimetric detection substrate 3,3′,5,5′-tetramethylbenzidine (Turbo-TMB; Pierce, USA) for 10 min.
A general note: In an ELISA, binding on a coated surface is turned into a signal by an enzyme label.

For experiment [12], the target named is T3, mouse HER3 polypeptide (mouse, UniProt Q61526 20-641).
T3 construct: also called M. musculus HER3 homologue
The experiment is described as above. How it is done:
as §1, §2

Experiment [13] addresses T4, rat HER3 polypeptide (rat, UniProt Q62799 20-643, limits assumed).
T4 construct: also called R. norvegicus HER3 homologue
The experiment is described as above. How it is done: as §1, §2

The target of experiment [14] is human HER2 polypeptide, recombinant (His-tagged HER2 protein) (human, UniProt P04626 23-652). Described as above. How it is done: as §1, §2
Experiment [15] addresses T5, human HER3 polypeptide, recombinant (His-tagged human HER3) (human, UniProt P21860 20-643, biotinylated in the assays of paragraph 766 and paragraph 908).
T5 construct: Bought protein (Sino Biological for the ELISAs); also called HER3 His; HER3-biotin
The experiment can be described thus: ELISA on human HER3 polypeptide coated at 0.1 ug/ml.

Experiment [16] has as its target FcgRIIA (H167) (human). The experiment can be described thus: Bio-Layer Interferometry, determined as described in Example 7.
Experiment [17] deals with FcgRIIA (R167) (human). The description is as above.
Experiment [18] has as its target FcgRIIB (human). Described as above.
Experiment [19] addresses human HER3 polypeptide, recombinant (His-tagged human HER3) (human) (UniProt P21860). The experiment can be described thus: plate ELISA dimerisation assay: human EGFR-His coated, HER3-biotin 4 µg/ml and NRG 0.1 µg/ml constant, antibody titrated; blocked interaction EGFR:HER3.
For experiment [20] the target is unchanged. As to the kind of experiment: BLI (Octet QK384), His-tagged human HER3 on anti-Penta-HIS tips, saturating antibody LJM-716 (400 nM), then competing antibody MM-121 (300 nM).

T4 sequence (Q62799 20-643 limits assumed): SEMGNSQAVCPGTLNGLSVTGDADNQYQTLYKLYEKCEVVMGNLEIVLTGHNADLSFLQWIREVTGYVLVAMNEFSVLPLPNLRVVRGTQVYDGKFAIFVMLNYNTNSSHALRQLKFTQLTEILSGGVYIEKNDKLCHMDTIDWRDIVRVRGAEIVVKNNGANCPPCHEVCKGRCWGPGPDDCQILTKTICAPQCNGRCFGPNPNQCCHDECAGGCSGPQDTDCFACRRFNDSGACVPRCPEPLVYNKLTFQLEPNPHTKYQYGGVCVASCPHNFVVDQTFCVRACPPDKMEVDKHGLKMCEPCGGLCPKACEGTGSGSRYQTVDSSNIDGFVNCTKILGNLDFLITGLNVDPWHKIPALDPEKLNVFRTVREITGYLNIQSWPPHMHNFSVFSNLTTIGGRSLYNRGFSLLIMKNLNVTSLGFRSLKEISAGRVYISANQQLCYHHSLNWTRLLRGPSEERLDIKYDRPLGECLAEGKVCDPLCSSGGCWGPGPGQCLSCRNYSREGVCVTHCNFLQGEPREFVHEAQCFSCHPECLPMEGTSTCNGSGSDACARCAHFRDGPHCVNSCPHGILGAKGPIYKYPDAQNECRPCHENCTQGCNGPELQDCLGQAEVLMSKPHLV
T3 sequence (Q61526 20-641 limits assumed): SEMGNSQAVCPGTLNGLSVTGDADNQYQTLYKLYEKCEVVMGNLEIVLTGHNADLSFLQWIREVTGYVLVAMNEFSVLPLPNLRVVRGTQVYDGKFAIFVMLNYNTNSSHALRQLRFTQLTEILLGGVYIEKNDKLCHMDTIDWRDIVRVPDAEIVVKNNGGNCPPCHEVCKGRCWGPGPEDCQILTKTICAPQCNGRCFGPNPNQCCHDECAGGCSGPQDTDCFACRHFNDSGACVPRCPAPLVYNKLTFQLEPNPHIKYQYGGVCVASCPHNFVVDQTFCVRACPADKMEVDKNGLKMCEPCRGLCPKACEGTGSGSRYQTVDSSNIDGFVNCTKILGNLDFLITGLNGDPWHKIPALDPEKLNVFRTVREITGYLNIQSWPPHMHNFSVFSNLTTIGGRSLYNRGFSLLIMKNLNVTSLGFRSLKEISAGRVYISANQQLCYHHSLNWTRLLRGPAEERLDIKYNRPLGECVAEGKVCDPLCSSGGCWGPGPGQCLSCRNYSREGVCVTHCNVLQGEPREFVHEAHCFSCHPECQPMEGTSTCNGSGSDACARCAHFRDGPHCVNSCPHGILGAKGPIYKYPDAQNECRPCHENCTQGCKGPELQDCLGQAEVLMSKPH
Chain of FcgRIIB (human) (P31994 43-217): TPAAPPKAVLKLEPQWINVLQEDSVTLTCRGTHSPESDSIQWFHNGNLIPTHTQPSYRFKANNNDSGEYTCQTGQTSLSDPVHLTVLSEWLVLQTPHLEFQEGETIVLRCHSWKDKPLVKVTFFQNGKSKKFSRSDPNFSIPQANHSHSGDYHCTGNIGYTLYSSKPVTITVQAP
Chain of FcgRIIA (H167) (human) (P12318 34-217): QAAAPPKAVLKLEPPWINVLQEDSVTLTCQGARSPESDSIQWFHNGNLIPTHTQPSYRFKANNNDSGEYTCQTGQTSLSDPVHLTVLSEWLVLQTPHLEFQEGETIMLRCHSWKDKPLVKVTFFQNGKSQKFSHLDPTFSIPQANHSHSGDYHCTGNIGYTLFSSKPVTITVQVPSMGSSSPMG

hIgG1 Isotype (antibody) gave a % Positive for HER4 in [1] of 0.07%. Moreover, the % Parent (HER3 positive gate) in experiment [2] turned out to be 0.18%.

As to Isotype (antibody), the % Parent (HER3 positive) in experiment [3] turned out to be 0.12%.

Take anti-HER3 antibody clone LJM716: the Kd in [4] came to 5380 nM; in experiment [5], 12.8 nM; in experiment [6], 701 nM; in [7] it was 16.5 nM; in experiment [9], 705 nM. Further, the % Positive for HER4 in experiment [1] is 0.27%. Moreover, in experiment [8], the % Parent (HE3 Positive) was 98.7%. Also, the % Parent (HER3 positive gate) in [2] stood at 74.4%. The % Parent (HER3 positive) in [10] is 99.5%.

B1: anti-HER3 clone 4-35-B4 IgG1 (antibody, V domains shown)
VH: EVQLQQSGAELVKPGASVKLSCTASGFNIKDTYIHWVKQRPDQGLEWIGKIIDPANGNTNYDPKFQGKATITADTSSNTAYLQLSSLSSEDTAVYFCARGLHWGQGTTLTVSS
VL: DIVLTQSPASLAVSLGQRATISCRASKSVSTSGYSYMHWYQQKPGQPPKLLIYLASNLESGVPARFSGSGSGTDFTLNIHPVEEEDAATYYCQHSRELPYTFGGGTKLEIKR
notes: Human IgG1 / kappa chimeric
Regarding B1, the binding result in experiment [11], in experiment [12], in experiment [13] and in experiment [14] was “binds” in each case.

B2: anti-HER3 clone 10D1_c90 IgG1 (antibody, V domains shown)
VH: QVQLQESGPGLVKPSQTLFLTCTVSGYSITSGYSWHWIRQHPGKGLEWIGSIRYSGGTDYNPSLKSLVTISVDTSKNQFSLKLSSVTAADTAVYYCARMTTAPWYPFDYWGQGTTVTVSS
VL: DIQMTQSPSSVSASVGDRVTFTCKASQIVGSNVAWYQQKPGKAPEPLIYSASYLYSSVPSRFSGSGSGTEFTMTISSLEPEDFATYYCQQYTTHPLTFGPGTKVEIKR
notes: Humanised 10D1 variant, human IgG1 / kappa
Take B2: the “EC50 (read off the curve)” value in experiment [15] was around 6 ng/mL.

B3: anti-HER3 antibody MM-121 (seribantumab) (antibody, INN chains, looked up, human IgG2)
heavy: EVQLLESGGGLVQPGGSLRLSCAASGFTFSHYVMAWVRQAPGKGLEWVSSISSSGGWTLYADSVKGRFTISRDNSKNTLYLQMNSLRAEDTAVYYCTRGLKMATIFDYWGQGTLVTVSSASTKGPSVFPLAPCSRSTSESTAALGCLVKDYFPEPVTVSWNSGALTSGVHTFPAVLQSSGLYSLSSVVTVPSSNFGTQTYTCNVDHKPSNTKVDKTVERKCCVECPPCPAPPVAGPSVFLFPPKPKDTLMISRTPEVTCVVVDVSHEDPEVQFNWYVDGVEVHNAKTKPREEQFNSTFRVVSVLTVVHQDWLNGKEYKCKVSNKGLPAPIEKTISKTKGQPREPQVYTLPPSREEMTKNQVSLTCLVKGFYPSDIAVEWESNGQPENNYKTTPPMLDSDGSFFLYSKLTVDKSRWQQGNVFSCSVMHEALHNHYTQKSLSLSPG
light: QSALTQPASVSGSPGQSITISCTGTSSDVGSYNVVSWYQQHPGKAPKLIIYEVSQRPSGVSNRFSGSKSGNTASLTISGLQTEDEADYYCCSYAGSSIFVIFGGGTKVTVLGQPKAAPSVTLFPPSSEELQANKATLVCLVSDFYPGAVTVAWKADGSPVKVGVETTKPSKQSNNKYAASSYLSLTPEQWKSHRSYSCRVTHEGSTVEKTVAPAECS
Turning to B3, the Kd in experiment [16] was found to be 222 nM; in [17] it was 243 nM; in experiment [5], 6.69 nM; in [7] it was 11.5 nM; in experiment [18], 1440 nM; in [9] it was 7050 nM. Moreover, the % Positive for HER4 in [1] is 8.73%. Besides, in [19], the half-inhibitory concentration (IC50) is 54.2 nM. Moreover, the cell of the competition table (name and unit of the value not given) in experiment [20] came out at 0.693.

As a reminder, the Kd is the free concentration of one partner at which half of the binding sites on the other are occupied at equilibrium, for simple one-to-one binding. Read a high Kd as a looser complex. As usually defined, the EC50 (read off the curve) is the midpoint of the concentration-response curve. The IC50 is the midpoint of a concentration-inhibition curve.
